This assay deals with T1, Myc-IQGAP3 (human, UniProt Q86VI3 2-1631).
T1 construct: human IQGAP3 from a commercial cDNA (Dharmacon); full length IQGAP3 (corresponding to amino acids 2-1631) in pcDNA3; also called overexpressed IQGAP3; IQ3; source: HEK293, transfected, in lysate
Kind of assay: co-IP; HEK293 cells transfected with Myc-IQGAP3 alone or with Myc-Cdc42 (wt, Q61L or T17N); anti-IQGAP3 rabbit polyclonal antibody and Protein A-Sepharose 4 h at 4 C; lysis buffer 150 mM NaCl, 1% Triton X-100, 200 mM Tris-HCl pH 7.4; Western blot. The note with it: partners not purified.

T1 sequence (Q86VI3 2-1631): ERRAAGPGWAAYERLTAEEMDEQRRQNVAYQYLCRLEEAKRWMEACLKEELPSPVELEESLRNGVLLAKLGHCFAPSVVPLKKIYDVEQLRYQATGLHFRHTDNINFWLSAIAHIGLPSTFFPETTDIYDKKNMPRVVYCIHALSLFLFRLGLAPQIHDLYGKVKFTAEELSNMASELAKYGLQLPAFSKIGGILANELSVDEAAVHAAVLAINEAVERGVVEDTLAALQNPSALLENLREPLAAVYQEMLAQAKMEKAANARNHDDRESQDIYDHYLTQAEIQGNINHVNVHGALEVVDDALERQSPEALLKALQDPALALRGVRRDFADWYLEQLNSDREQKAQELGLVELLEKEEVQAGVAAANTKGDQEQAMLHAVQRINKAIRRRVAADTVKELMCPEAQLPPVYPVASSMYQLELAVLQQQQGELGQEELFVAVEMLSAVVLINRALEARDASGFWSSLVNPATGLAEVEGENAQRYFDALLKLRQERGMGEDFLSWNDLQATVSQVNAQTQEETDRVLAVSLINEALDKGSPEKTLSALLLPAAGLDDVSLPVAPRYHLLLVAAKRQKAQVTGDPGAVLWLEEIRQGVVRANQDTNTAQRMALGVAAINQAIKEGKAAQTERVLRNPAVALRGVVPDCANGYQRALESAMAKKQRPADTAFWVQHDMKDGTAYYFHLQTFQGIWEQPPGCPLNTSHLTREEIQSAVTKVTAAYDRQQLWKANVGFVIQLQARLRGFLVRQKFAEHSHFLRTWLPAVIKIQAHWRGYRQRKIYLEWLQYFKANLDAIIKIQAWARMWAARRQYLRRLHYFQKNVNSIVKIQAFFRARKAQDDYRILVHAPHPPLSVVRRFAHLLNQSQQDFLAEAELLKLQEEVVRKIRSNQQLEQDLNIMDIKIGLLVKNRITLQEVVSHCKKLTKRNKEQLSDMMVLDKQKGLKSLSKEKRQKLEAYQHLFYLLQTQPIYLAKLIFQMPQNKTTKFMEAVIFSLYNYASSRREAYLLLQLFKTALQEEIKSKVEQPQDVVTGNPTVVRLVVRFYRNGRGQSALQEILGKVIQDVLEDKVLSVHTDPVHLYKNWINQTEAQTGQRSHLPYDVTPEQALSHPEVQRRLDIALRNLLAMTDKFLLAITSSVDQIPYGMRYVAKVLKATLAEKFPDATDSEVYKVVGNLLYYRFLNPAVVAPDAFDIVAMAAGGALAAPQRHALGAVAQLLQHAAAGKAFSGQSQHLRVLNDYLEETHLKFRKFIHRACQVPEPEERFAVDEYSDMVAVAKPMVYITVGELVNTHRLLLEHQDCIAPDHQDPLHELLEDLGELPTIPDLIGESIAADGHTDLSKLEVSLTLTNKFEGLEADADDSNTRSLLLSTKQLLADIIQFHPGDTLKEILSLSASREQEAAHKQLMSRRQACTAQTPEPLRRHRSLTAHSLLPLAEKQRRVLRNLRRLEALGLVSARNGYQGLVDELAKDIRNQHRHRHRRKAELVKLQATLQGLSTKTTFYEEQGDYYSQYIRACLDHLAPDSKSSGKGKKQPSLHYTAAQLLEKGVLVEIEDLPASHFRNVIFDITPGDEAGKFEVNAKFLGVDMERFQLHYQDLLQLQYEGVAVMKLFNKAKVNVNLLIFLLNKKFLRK

B1: Myc-Cdc42 constitutively active (Q61L) (natural protein)
chain: not shown
notes: Cdc42 Q61L cut from pGEX-2T-Cdc42-Q61L and inserted into pcDNA3; also called Myc-Cdc42-Q61L; Cdc42 Q61L; source: HEK293, transfected, in lysate
Turning to B1, the “fold amount co-immunoprecipitated against wild type Cdc42” value came to 1.7 fold.

The values above are taken from publication PMC6667474 (Scientific Reports, 2019).
